In patent US20240226163A1 (Regeneron, published 2024):

Tests used:
[1] = target: T1, HLA-A*02:01 presenting HEATR5A 1925-1933 peptide (…) (human); experiment: cell-based or functional assay
[2] = target: HLA-A*02:01 presenting CNOT1 1965-1973 peptide (…) (human); experiment: cell-based or functional assay
[3] = target: HLA-A*02:01 presenting SHTN1 198-206 peptide (…) (human); experiment: cell-based or functional assay
[4] = target: HLA-A*02:01 presenting TEP1 2156-2164 peptide (…) (human); experiment: cell-based or functional assay
[5] = target: HLA-A*02:01 presenting FN1 2182-2190 peptide (…) (human); experiment: cell-based or functional assay
[6] = target: HLA-A*02:01 presenting SMIM11A 4-12 peptide (…) (human); experiment: cell-based or functional assay
[7] = target: HLA-A*02:01 presenting PLEKHH2 790-798 peptide (…) (human); experiment: cell-based or functional assay
[8] = target: HLA-A*02:01 presenting MRPL37 334-342 peptide (…) (human); experiment: cell-based or functional assay
[9] = target: HLA-A*02:01 presenting CARD8 170-178 peptide (…) (human); experiment: cell-based or functional assay
[10] = target: HLA-A*02:01 presenting AOX1 795-803 peptide (…) (human); experiment: cell-based or functional assay
[11] = target: HLA-A*02:01 presenting PSME2 145-153 peptide (…) (human); experiment: cell-based or functional assay
[12] = target: HLA-A*02:01 presenting NBAS 2063-2071 peptide (…) (human); experiment: cell-based or functional assay
[13] = target: HLA-A*02:01 presenting RABGAP1L 408-416 peptide (…) (human); experiment: cell-based or functional assay
[14] = target: HLA-A*02:01 presenting PCDHGC3 337-345 peptide (…) (human); experiment: cell-based or functional assay
[15] = target: T1, HLA-A*02:01 presenting HEATR5A …; experiment: flow cytometry, peptide-pulsed T2 cells;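 note: ratio of peak mean fluorescence intensity across a 12-point threefold antibody dilution series to the MFI with secondary antibody only, live-gated cells by flow cytometry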
Experimental: (§1) Samples were run on an Intellicyt iQue flow cytometer (Intellicyt) and results were analyzed using Forecyte analysis software (Intellicyte) to calculate the mean fluorescent intensity (MFI) after gating for live cells. MFI values were plotted in Graphpad Prism using a four-parameter logistic equation over a 12-point response curve to calculate EC₅₀ values. The secondary antibody alone (i.e. no primary antibody) for each dose-response curve is also included in the analysis as a continuation of the three-fold serial dilution and is represented as the lowest dose. The signal to noise (S/N) was determined by taking the ratio of the highest MFI on the dose response curve to the MFI in the secondary alone wells.

[16] = target: T2, HLA-A*02:01 presenting CNOT1 1965-1973 peptide (…) (human); experiment: flow cytometry, peptide-pulsed T2 cells;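 note: ratio of peak mean fluorescence intensity across a 12-point threefold antibody dilution series to the MFI with secondary antibody only, live-gated cells by flow cytometry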
T2 construct: On peptide-pulsed T2 cells; also called T2 Pulsed CNOT1 1965-1973
Experimental: as §1

[17] = target: T3, HLA-A*02:01 presenting SHTN1 198-206 peptide (…) (human); experiment: flow cytometry, peptide-pulsed T2 cells;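 note: ratio of peak mean fluorescence intensity across a 12-point threefold antibody dilution series to the MFI with secondary antibody only, live-gated cells by flow cytometry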
T3 construct: On peptide-pulsed T2 cells; also called T2 Pulsed SHTN1 198-206
Experimental: as §1

[18] = target: T4, HLA-A*02:01 presenting TEP1 2156-2164 peptide (…) (human); experiment: flow cytometry, peptide-pulsed T2 cells;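 note: ratio of peak mean fluorescence intensity across a 12-point threefold antibody dilution series to the MFI with secondary antibody only, live-gated cells by flow cytometry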
T4 construct: On peptide-pulsed T2 cells; also called T2 Pulsed TEP1 2156-2164
Experimental: as §1

[19] = target: T5, HLA-A*02:01 presenting FN1 2182-2190 peptide (…) (human); experiment: flow cytometry, peptide-pulsed T2 cells
T5 construct: On peptide-pulsed T2 cells; also called T2 Pulsed FN1 2182-2190
Experimental: as §1

[20] = target: T6, HLA-A*02:01 presenting SMIM11A 4-12 peptide (…) (human); experiment: flow cytometry, peptide-pulsed T2 cells
T6 construct: On peptide-pulsed T2 cells; also called T2 Pulsed SMIM11A 4-12
Experimental: as §1

[21] = target: T7, HLA-A*02:01 presenting PLEKHH2 790-798 peptide (…) (human); experiment: flow cytometry, peptide-pulsed T2 cells
T7 construct: On peptide-pulsed T2 cells; also called T2 Pulsed PLEKHH2 790-798
Experimental: as §1

[22] = target: T8, HLA-A*02:01 presenting MRPL37 334-342 peptide (…) (human); experiment: flow cytometry, peptide-pulsed T2 cells
T8 construct: On peptide-pulsed T2 cells; also called T2 Pulsed MRPL37 334-342
Experimental: as §1

[23] = target: T9, HLA-A*02:01 presenting CARD8 170-178 peptide (…) (human); experiment: flow cytometry, peptide-pulsed T2 cells
T9 construct: On peptide-pulsed T2 cells; also called T2 Pulsed CARD8 170-178
Experimental: as §1

[24] = target: T10, HLA-A*02:01 presenting AOX1 795-803 peptide (…) (human); experiment: flow cytometry, peptide-pulsed T2 cells
T10 construct: On peptide-pulsed T2 cells; also called T2 Pulsed AOX1 795-803
Experimental: as §1

[25] = target: T11, HLA-A*02:01 presenting MAGE-A4 286-294 peptide (…) (human); experiment: flow cytometry, peptide-pulsed T2 cells
T11 construct: On peptide-pulsed T2 cells
Experimental: as §1

[26] = target: T12, HLA-A*02:01 presenting PSME2 145-153 peptide (…) (human); experiment: flow cytometry, peptide-pulsed T2 cells
T12 construct: On peptide-pulsed T2 cells; also called T2 Pulsed PSME2 145-153
Experimental: as §1

[27] = target: T13, HLA-A*02:01 presenting NBAS 2063-2071 peptide (…) (human); experiment: flow cytometry, peptide-pulsed T2 cells
T13 construct: On peptide-pulsed T2 cells; also called T2 Pulsed NBAS 2063-2071
Experimental: as §1

[28] = target: T14, HLA-A*02:01 presenting RABGAP1L 408-416 peptide (…) (human); experiment: flow cytometry, peptide-pulsed T2 cells
T14 construct: On peptide-pulsed T2 cells; also called T2 Pulsed RABGAP1L 408-416
Experimental: as §1

[29] = target: T15, HLA-A*02:01 presenting PCDHGC3 337-345 peptide (…) (human); experiment: flow cytometry, peptide-pulsed T2 cells
T15 construct: On peptide-pulsed T2 cells; also called T2 Pulsed PCDHGC3 337-345
Experimental: as §1

[30] = target: T11, HLA-A*02:01 presenting MAGE-A4 286-294 …; experiment: cell-based or functional assay

B1: bsAb6043 (bispecific antibody, V domains shown)
VH 1: QVQLVESGGGLVKPGGSLRLSCAASGFTFSEYYLTWIRQAPGKGLDWIAYISSSGYNIYYADSVKDRFTISRDNGKNSLFLQMNNLRAEDTAVYFCAREGVTDGMDVWGQGTTVTVSS
VH 2: EVQLVESGGGLVQPGRSLRLSCAASGFTFDDYSMHWVRQAPGKGLEWVSGISWNSGSKGYADSVKGRFTISRDNAKNSLYLQMNSLRAEDTALYYCAKYGSGYGKFYHYGLDVWGQGTTVTVSS
VL: DIQMTQSPSSLSASVGDRVTITCRASQSIDTFLNWYQQKPGKVPKLLIYAASNLESGVPSRFSGSGSGTVFTLTISRLQPEDFATYYCQQSYSIPPITFGQGTRVEIK
notes: Only variable regions are tied to the bispecific; also called MAGE-A4×CD3 (7221G) bispecific antibody
EC50 (M), Jurkat/NF-κB-Luc reporter with pulsed T2 cells [1]: > 2e-08 M | Fold change, Jurkat/NF-κB-Luc reporter with pulsed T2 cells [1]: 2.1 fold | EC50 (M), Jurkat/NF-κB-Luc reporter with pulsed T2 cells [2]: > 2e-08 M | Fold change, Jurkat/NF-κB-Luc reporter with pulsed T2 cells [2]: 1 fold | EC50 (M), Jurkat/NF-κB-Luc reporter with pulsed T2 cells [3]: 3.5e-09 M | Fold change, Jurkat/NF-κB-Luc reporter with pulsed T2 cells [3]: 75.3 fold | EC50 (M), Jurkat/NF-κB-Luc reporter with pulsed T2 cells [4]: > 2e-08 M | Fold change, Jurkat/NF-κB-Luc reporter with pulsed T2 cells [4]: 1.9 fold | EC50 (M), Jurkat/NF-κB-Luc reporter with pulsed T2 cells [5]: > 2e-08 M | Fold change, Jurkat/NF-κB-Luc reporter with pulsed T2 cells [5]: 1 fold | EC50 (M), Jurkat/NF-κB-Luc reporter with pulsed T2 cells [6]: > 2e-08 M | Fold change, Jurkat/NF-κB-Luc reporter with pulsed T2 cells [6]: 1.2 fold | EC50 (M), Jurkat/NF-κB-Luc reporter with pulsed T2 cells [7]: > 2e-08 M | Fold change, Jurkat/NF-κB-Luc reporter with pulsed T2 cells [7]: 1.9 fold | EC50 (M), Jurkat/NF-κB-Luc reporter with pulsed T2 cells [8]: > 2e-08 M | Fold change, Jurkat/NF-κB-Luc reporter with pulsed T2 cells [8]: 1.2 fold | EC50 (M), Jurkat/NF-κB-Luc reporter with pulsed T2 cells [9]: > 2e-08 M | Fold change, Jurkat/NF-κB-Luc reporter with pulsed T2 cells [9]: 1.8 fold | EC50 (M), Jurkat/NF-κB-Luc reporter with pulsed T2 cells [10]: 3.3e-10 M | Fold change, Jurkat/NF-κB-Luc reporter with pulsed T2 cells [10]: 40.4 fold | EC50 (M), Jurkat/NF-κB-Luc reporter with pulsed T2 cells [11]: > 2e-08 M | Fold change, Jurkat/NF-κB-Luc reporter with pulsed T2 cells [11]: 1 fold | EC50 (M), Jurkat/NF-κB-Luc reporter with pulsed T2 cells [12]: > 2e-08 M | Fold change, Jurkat/NF-κB-Luc reporter with pulsed T2 cells [12]: 1.6 fold | EC50 (M), Jurkat/NF-κB-Luc reporter with pulsed T2 cells [13]: > 2e-08 M | Fold change, Jurkat/NF-κB-Luc reporter with pulsed T2 cells [13]: 1.1 fold | EC50 (M), Jurkat/NF-κB-Luc reporter with pulsed T2 cells [14]: > 2e-08 M | Fold change, Jurkat/NF-κB-Luc reporter with pulsed T2 cells [14]: 1 fold | S/N ratio [15]: 1 | S/N ratio [16]: 1 | S/N ratio [17]: 5 | S/N ratio [18]: 1 | S/N ratio [19]: 1 | S/N ratio [20]: 1 | S/N ratio [21]: 1 | S/N ratio [22]: 1 | S/N ratio [23]: 1 | S/N ratio [24]: 110 | S/N ratio [25]: 244 | S/N ratio [26]: 1 | S/N ratio [27]: 1 | S/N ratio [28]: 1 | S/N ratio [29]: 1 | Fold Activation, NF-κB luciferase, Jurkat + IM-9, with 2 nM mAb5705 (anti-CD28) [30]: 1.1 fold | Fold Activation, NF-κB luciferase, Jurkat + U266, with 2 nM mAb5705 (anti-CD28) [30]: 0.9 fold
